other: unbinding time (tUb) and other: average unbinding time data for 2 molecules are collected here from paper PMC10354202.

This experiment deals with T1, (Ig32)2-(R3^IVVI)-(Ig32)2 polyprotein, talin R3 domain with the IVVI mutation.
T1 chain: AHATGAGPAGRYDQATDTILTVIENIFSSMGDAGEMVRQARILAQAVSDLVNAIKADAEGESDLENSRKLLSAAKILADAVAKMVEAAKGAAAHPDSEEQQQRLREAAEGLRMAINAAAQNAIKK
In words: magnetic tweezers. The settings on record: chain shown with the change; for other: average unbinding time at 40 pN: parent: est. 9 s, read off a plot.

B1: full-length human vinculin, wild type, P18206-2 K944A; R945A; D1013A; E1015A; E986A (protein)
chain: MPVFHTRTIESILEPVAQQISHLVIMHEEGEVDGKAIPDLTAPVAAVQAAVSNLVRVGKETVQTTEDQILKRDMPPAFIKVENACTKLVQAAQMLQSDPYSVPARDYLIDGSRGILSGTSDLLLTFDEAEVRKIIRVCKGILEYLTVAEVVETMEDLVTYTKNLGPGMTKMAKMIDERQQELTHQEHRVMLVNSMNTVKELLPVLISAMKIFVTTKNSKNQGIEEALKNRNFTVEKMSAEINEIIRVLQLTSWDEDAWASKDTEAMKRALASIDSKLNQAKGWLRDPSASPGDAGEQAIRQILDEAGKVGELCAGKERREILGTCKMLGQMTDQVADLRARGQGSSPVAMQKAQQVSQGLDVLTAKVENAARKLEAMTNSKQSIAKKIDAAQNWLADPNGGPEGEEQIRGALAEARKIAELCDDPKERDDILRSLGEISALTSKLADLRRQGKGDSPEARALAKQVATALQNLQTKTNRAVANSRPAKAAVHLEGKIEQAQRWIDNPTVDDRGVGQAAIRGLVAEGHRLANVMMGPYRQDLLAKCDRVDQLTAQLADLAARGEGESPQARALASQLQDSLKDLKARMQEAMTQEVSDVFSDTTTPIKLLAVAATAPPDAPNREEVFDERAANFENHSGKLGATAEKAAAVGTANKSTVEGIQASVKTARELTPQVVSAARILLRNPGNQAAYEHFETMKNQWIDNVEKMTGLVDEAIDTKSLLDASEEAIKKDLDKCKVAMANIQPQMLVAGATSIARRANRILLVAKREVENSEDPKFREAVKAASDELSKTISPMVMDAKAVAGNISDPGLQKSFLDSGYRILGAVAKVREAFQPQEPDFPPPPPDLEQLRLTDELAPPKPPLPEGEVPPPRPPPPEEKDEEFPEQKAGEVINQPMMMAARQLHDEARKWSSKGNDIIAAAKRMALLMAEMSRLVRGGSGTAAALIQCAKDIAKASDEVTRLAKEVAKQCTDKRIRTNLLQVCARIPTISTQLKILSTVKATMLGRTNISAEASEQATEMLVHNAQNLMQSVKETVREAEAASIKIRTDAGFTLRWVRKTPWYQ
On to B1, for which the other: unbinding time (tUb) at 40 pN, peak of square-root histogram was determined as 3.4 s and the other: average unbinding time at 40 pN was 18 s.

B2: full-length human vinculin, wild type, P18206-2 K944A; R945A; D1013A; E1015A (protein)
chain: MPVFHTRTIESILEPVAQQISHLVIMHEEGEVDGKAIPDLTAPVAAVQAAVSNLVRVGKETVQTTEDQILKRDMPPAFIKVENACTKLVQAAQMLQSDPYSVPARDYLIDGSRGILSGTSDLLLTFDEAEVRKIIRVCKGILEYLTVAEVVETMEDLVTYTKNLGPGMTKMAKMIDERQQELTHQEHRVMLVNSMNTVKELLPVLISAMKIFVTTKNSKNQGIEEALKNRNFTVEKMSAEINEIIRVLQLTSWDEDAWASKDTEAMKRALASIDSKLNQAKGWLRDPSASPGDAGEQAIRQILDEAGKVGELCAGKERREILGTCKMLGQMTDQVADLRARGQGSSPVAMQKAQQVSQGLDVLTAKVENAARKLEAMTNSKQSIAKKIDAAQNWLADPNGGPEGEEQIRGALAEARKIAELCDDPKERDDILRSLGEISALTSKLADLRRQGKGDSPEARALAKQVATALQNLQTKTNRAVANSRPAKAAVHLEGKIEQAQRWIDNPTVDDRGVGQAAIRGLVAEGHRLANVMMGPYRQDLLAKCDRVDQLTAQLADLAARGEGESPQARALASQLQDSLKDLKARMQEAMTQEVSDVFSDTTTPIKLLAVAATAPPDAPNREEVFDERAANFENHSGKLGATAEKAAAVGTANKSTVEGIQASVKTARELTPQVVSAARILLRNPGNQAAYEHFETMKNQWIDNVEKMTGLVDEAIDTKSLLDASEEAIKKDLDKCKVAMANIQPQMLVAGATSIARRANRILLVAKREVENSEDPKFREAVKAASDELSKTISPMVMDAKAVAGNISDPGLQKSFLDSGYRILGAVAKVREAFQPQEPDFPPPPPDLEQLRLTDELAPPKPPLPEGEVPPPRPPPPEEKDEEFPEQKAGEVINQPMMMAARQLHDEARKWSSKGNDIIAAAKRMALLMAEMSRLVRGGSGTAAALIQCAKDIAKASDEVTRLAKEVAKQCTDKRIRTNLLQVCERIPTISTQLKILSTVKATMLGRTNISAEASEQATEMLVHNAQNLMQSVKETVREAEAASIKIRTDAGFTLRWVRKTPWYQ
With B2, the other: unbinding time (tUb) at 40 pN, peak of square-root histogram came to 4 s and the other: average unbinding time at 40 pN stood at 27 s.
